Measurements as given in patent publication US20240390512A1, “METHODS OF TREATING CHEMOTHERAPY-RESISTANT CANCER WITH AN ANTIBODY-DRUG CONJUGATE” (DAIICHI SANKYO COMPANY, LIMITED, priority 2021, published 2024).

T1: human CDH6 (full-length and EC domain deletion mutants) (Homo sapiens, UniProt P55285, DEL160-268)
T1 construct: each one of the five EC domains could be deleted from full-length human CDH6; 3xFLAG (deletion mutants only, from the vector p3×FLAG-CMV-9); expressed in transfected cells; host or cells: 293α cells
T1 sequence (P55285 with tags, fused parts or gaps DEL160-268): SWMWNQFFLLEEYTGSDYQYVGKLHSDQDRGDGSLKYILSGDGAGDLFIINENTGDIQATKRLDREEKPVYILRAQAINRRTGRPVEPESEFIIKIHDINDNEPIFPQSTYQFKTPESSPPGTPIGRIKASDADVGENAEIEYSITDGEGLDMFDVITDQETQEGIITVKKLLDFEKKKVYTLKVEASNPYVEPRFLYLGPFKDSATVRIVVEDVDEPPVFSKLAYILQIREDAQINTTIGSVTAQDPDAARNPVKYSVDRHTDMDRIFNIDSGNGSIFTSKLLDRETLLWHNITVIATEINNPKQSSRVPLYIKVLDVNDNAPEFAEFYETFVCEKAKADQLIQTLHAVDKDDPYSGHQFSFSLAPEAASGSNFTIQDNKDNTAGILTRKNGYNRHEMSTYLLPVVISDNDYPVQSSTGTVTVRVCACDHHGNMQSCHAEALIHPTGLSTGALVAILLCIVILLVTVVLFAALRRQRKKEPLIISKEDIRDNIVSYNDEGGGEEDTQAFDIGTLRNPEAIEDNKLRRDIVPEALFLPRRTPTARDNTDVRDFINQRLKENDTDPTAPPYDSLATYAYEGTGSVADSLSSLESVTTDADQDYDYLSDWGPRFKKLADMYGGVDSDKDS

T2: human CDH6 (full-length and EC domain deletion mutants) (Homo sapiens, UniProt P55285)
T2 construct: each one of the five EC domains could be deleted from full-length human CDH6; 3xFLAG (deletion mutants only, from the vector p3×FLAG-CMV-9); expressed in transfected cells; host or cells: 293α cells
T2 sequence (P55285 160-790): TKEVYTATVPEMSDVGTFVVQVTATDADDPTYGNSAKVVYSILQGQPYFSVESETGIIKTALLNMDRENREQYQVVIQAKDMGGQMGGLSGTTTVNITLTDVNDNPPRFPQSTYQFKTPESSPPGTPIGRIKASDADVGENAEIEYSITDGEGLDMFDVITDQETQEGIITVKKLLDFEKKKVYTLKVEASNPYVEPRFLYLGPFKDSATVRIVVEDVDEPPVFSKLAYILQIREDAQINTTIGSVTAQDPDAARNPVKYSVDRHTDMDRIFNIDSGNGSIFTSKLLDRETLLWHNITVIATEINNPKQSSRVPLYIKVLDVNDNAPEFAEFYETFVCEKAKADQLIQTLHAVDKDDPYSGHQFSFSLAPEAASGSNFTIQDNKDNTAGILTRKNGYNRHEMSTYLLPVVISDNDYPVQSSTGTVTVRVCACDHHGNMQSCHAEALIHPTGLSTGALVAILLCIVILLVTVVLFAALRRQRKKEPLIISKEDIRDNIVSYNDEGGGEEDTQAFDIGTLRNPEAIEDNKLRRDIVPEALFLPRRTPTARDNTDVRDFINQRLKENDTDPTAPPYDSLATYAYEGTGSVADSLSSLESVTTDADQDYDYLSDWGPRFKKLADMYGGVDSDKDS


Tests used:
[1] = target: T1, human CDH6 (full-length and EC domain deletion mutants); assay: Epitope analysis of rat anti-CDH6 antibody by flow cytometry using domain deletion mutants; format: binding; conditions: flow cytometry; transfected 293α cells; antibody 20 nM
Source text: (§1) The full-length extracellular region of human CDH6 has five extracellular domains, EC1 (SEQ ID NO: 2), EC2 (SEQ ID NO: 3), EC3 (SEQ ID NO: 4), EC4 (SEQ ID NO: 5), and EC5 (SEQ ID NO: 6). A gene to be expressed such that each one of the five EC domains could be deleted from full-length human CDH6 was synthesized by GeneArt, and incorporated into p3×FLAG-CMV-9 vectors for mammalian expression (Sigma-Aldrich Co. LLC) according to a method known to a person skilled in the art in order to produce an expression vector for each domain deletion mutant lacking any one of EC1 to EC5.
(§2) The epitopes to which the rat anti-human CDH6 antibodies bound were identified by flow cytometry analysis using a 293α cell line transfected with each EC domain deletion vector. Using Lipofectamine 2000 (Thermo Fisher Scientific Inc.), each domain deletion mutant expression vector produced in Reference Example 2)-2-1, or pcDNA3.1-hCDH6 for the expression of full-length human CDH6 was transiently introduced into a 293α cell line, which was a cell line derived from HEK293 cells by stable transfection with integrin αv and integrin […] expression vectors. The cells were cultured overnight under conditions of 37° C. and 5% CO2, and thereafter, a cell suspension was prepared. The suspension of the transfected 293α cells was centrifuged, and a supernatant was then removed. Thereafter, the cells were suspended by the addition of each of the 4 rat anti-CDH6 monoclonal antibodies (clone Nos: rG019, rG055, rG056 and rG061), which had been prepared in Reference Example 1)-7, or rat IgG control (R&D Systems, Inc.) (final concentration: 20 nM). The cells were left standing at 4° C. for 1 hour. The cells were washed twice with PBS supplemented with 5% FBS, and then suspended by the addition of Anti-Rat IgG (whole molecule)-FITC antibody produced in rabbit (Sigma-Aldrich Co. LLC) that had been 50-fold diluted with PBS supplemented with 5% FBS. The cells were left standing at 4° C. for 1 hour. The cells were washed twice with PBS supplemented with 5% FBS, followed by detection using a flow cytometer (Canto II; BD Biosciences). The data was analyzed using FlowJo (Tree Star, Inc.). In the histograms of FIGS. 2-1 to 2-6, the abscissa depicts FITC fluorescence intensity indicating the amount of the antibody bound, and the ordinate depicts cell count. […] Fluorescence intensity is enhanced when the antibody binds to full-length hCDH6 or each EC domain deletion mutant on the surface of cells. The rat IgG control binds to none of the transfected cells.

[2] = target: T2, human CDH6 (full-length and EC domain deletion mutants); assay: as above; format: binding; conditions: flow cytometry; transfected 293α cells; antibody 20 nM
Source text: as §1, §2

Row | Molecule | binding to EC2 deletion mutant [1] | binding to EC1 deletion mutant [2]
1 | rG019: rat anti-human CDH6 monoclonal antibody produced by hybridoma rG019; variable regions SEQ ID NO: 10 and 15 (antibody, listed as Rattus norvegicus, V domains shown) VL: DIQMTQSPSLLSASVGDRVTLNCKASQNIYKNLAWYQQKLGEGPKLLIYDANTLQTGIPSRFSGSGSGSDFTLTISSLQPEDVATYFCQQYYSGWAFGGVTNLELKRA VH: QVQLQQSGAELVKPGSSVKISCKASGYTFTRNFMHWIKQQPGNGLEWIGWIYCGDGETEYNQKFNGKATLTADRSSSTAYMELSRLTSEDSAVYFCARGVYGGFAGGYFDFWGQGVMVTVSS | bind | bind
2 | rG055: rat anti-human CDH6 monoclonal antibody produced by hybridoma rG055; variable regions SEQ ID NO: 20 and 25 (antibody, listed as Rattus norvegicus, V domains shown) VL: DVQMTHSPSYLAASPGESVSISCKTSKNISNYLVWYQQKPGEAYKLLIYSGSTLQSGTPSRFSGSGSGTDFTLTIRSLEPEDFGLYFCQQYYEKPFTFGSGTKLEIKRA VH: EVQLQESGPGLVRPSQSLSLSCSVTDYSITSNYWGWIRRFPGNKMEWMGYITYSGYTSYNPSLQSRISITRDTSKNQFFLQLNSVTAEDTATYYCARSINHGGYSYVVDAWGPGASVTVSS | bind | bind
3 | rG056: rat anti-human CDH6 monoclonal antibody produced by hybridoma rG056; variable regions SEQ ID NO: 30 and 35 (antibody, listed as Rattus norvegicus, V domains shown) VL: DVQMTQSPSSLAASPGESVSISCRATKSIGIYLAWYQQKPGKTFKLLIYSGSTLQSGTPSRFSGSGSGTDFTLTIRSLEPEDFGLYFCQQFYENPFTFGSGTKLEIRRA VH: EVQLQESGPGLVKPSQSLSLTCSVTDYSITTYFWGWIRKFPGNKMEWMGYMSYRGGTSYNPSLKSRISITRDTSKNQFFLQLNSVTTEDTATYYCARCPNYGGHSLVFDYWGQGVMVTVSS | bind | bind
4 | rG061: rat anti-human CDH6 monoclonal antibody produced by hybridoma rG061; variable regions SEQ ID NO: 40 and 45 (antibody, listed as Rattus norvegicus, V domains shown) VL: DVQMTQSPSYLAASPGESVSISCKATKSISNYLAWYQQKPGEAYKVLIYSGSTLQSGTPSRFSGSGSGTDFTLTIRSLEPEDFGLYSCQQYYEKPLTFGSGTKLEIKRA VH: EVQLQESGPGLVKPSQSLSLTCSVTGYSITTYYWGWIRKFPGNKMEWMGYISYSGRTSYNPSLKSRMSITRDASKNQFFLQLNSVTTDDTATYYCARSPINHGGYWYFDFWGPGTMVTVSS | bind | bind
